Data: US20080194485A1, “Detection and Use of Prolylcarboxypeptidase” (YALE UNIVERSITY, priority 2004, published 2008)

Biological target: recombinant PRCP51 (recombinant human prolylcarboxypeptidase, predicted molecular mass 51 kDa) (human) (UniProt P42785)
Assay: cell-based or functional assay

Sequence of recombinant PRCP51 (recombinant human prolylcarboxypeptidase, predicted molecular mass 51 kDa) (human) (P42785 46-496 limits assumed): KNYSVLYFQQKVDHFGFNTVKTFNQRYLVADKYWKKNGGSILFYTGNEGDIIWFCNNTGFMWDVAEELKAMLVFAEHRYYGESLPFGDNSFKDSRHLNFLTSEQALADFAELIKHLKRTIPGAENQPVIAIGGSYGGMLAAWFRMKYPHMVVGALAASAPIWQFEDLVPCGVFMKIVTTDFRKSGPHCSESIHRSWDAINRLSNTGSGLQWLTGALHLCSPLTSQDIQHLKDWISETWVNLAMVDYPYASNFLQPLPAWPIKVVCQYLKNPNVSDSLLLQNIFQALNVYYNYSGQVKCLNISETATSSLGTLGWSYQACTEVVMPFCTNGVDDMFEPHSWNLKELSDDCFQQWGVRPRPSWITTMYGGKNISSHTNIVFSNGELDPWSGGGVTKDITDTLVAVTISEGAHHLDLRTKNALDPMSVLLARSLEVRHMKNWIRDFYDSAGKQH

angiotensinogen II (AgII) (from UniProt P01019 25-32) (peptide)
inhibition of rPRCP51-induced prekallikrein (PK) activation (residual kallikrein activity on S2302), IC50: 150 µM
